Measurements reported in patent publication EP4471048A1, “PEPTIDE INHIBITORS OF INTERLEUKIN-23 RECEPTOR” (Zealand Pharma A/S, priority 2023, dated 2024).
Where two headings read alike, the source gives them in different places. *1 amine or outer side, *2 acyl side, *3 side chain or, on linkers, in order; H or OH if unused. Bridges are numbered along the chain shown (N, C = ends). [ ]: non-standard residue; d: D form. The star is where a group is joined. 4‑Aminomethyl‑phenylacetyl = 4-aminomethyl-phenylacetyl unit, its amine closes the lactam, O=C(Cc1ccc(CN[*:1])cc1)[*:2]; γDab = iso-Dab: Dab joined to preceding residue by its side-chain amine, O=C([C@H](CCN[*:1])N[*:3])[*:2]; Q(pyrrolidin) = modified Gln, O=C(CC[C@H](N[*:1])C(=O)[*:2])N1CCCC1; 2‑Amino‑6‑carboxyhexanoyl = 2-aminoheptanedioic acid residue; Propanoyl(3-(3-pyridyl)) = O=C(CCc1cccnc1)*; Phe(4-Me) = Cc1ccc(C[C@H](N)C(=O)O)cc1; 2Nal = N[C@@H](Cc1ccc2ccccc2c1)C(=O)O; AEF = NCCOc1ccc(C[C@H](N)C(=O)O)cc1; 3Pal = N[C@@H](Cc1cccnc1)C(=O)O; Aad = N[C@@H](CCCC(=O)O)C(=O)O; αMeL = CC(C)C[C@](C)(N)C(=O)O; dOrn = NCCC[C@@H](N)C(=O)O; dDab = NCC[C@@H](N)C(=O)O; Dab = NCC[C@H](N)C(=O)O

Key:
[1] = biological target: human IL-23R endogenously expressed on DB cells (human) (UniProt Q5VWK5); experiment: cell-based or functional assay
[2] = biological target: T1, Nluc-IL23R fusion protein (human, UniProt Q5VWK5 22-629); experiment: BRET competition vs TAMRA-labelled peptide, Nluc-IL23R membranes
T1 construct: range 22-629; Stably expressed in HEK293 cells; also called hIL-23R; human IL-23R; not shown: Nanoluc protein (N1371, Promega) at the N-terminus, after a secretion signal
T1 sequence (looked up): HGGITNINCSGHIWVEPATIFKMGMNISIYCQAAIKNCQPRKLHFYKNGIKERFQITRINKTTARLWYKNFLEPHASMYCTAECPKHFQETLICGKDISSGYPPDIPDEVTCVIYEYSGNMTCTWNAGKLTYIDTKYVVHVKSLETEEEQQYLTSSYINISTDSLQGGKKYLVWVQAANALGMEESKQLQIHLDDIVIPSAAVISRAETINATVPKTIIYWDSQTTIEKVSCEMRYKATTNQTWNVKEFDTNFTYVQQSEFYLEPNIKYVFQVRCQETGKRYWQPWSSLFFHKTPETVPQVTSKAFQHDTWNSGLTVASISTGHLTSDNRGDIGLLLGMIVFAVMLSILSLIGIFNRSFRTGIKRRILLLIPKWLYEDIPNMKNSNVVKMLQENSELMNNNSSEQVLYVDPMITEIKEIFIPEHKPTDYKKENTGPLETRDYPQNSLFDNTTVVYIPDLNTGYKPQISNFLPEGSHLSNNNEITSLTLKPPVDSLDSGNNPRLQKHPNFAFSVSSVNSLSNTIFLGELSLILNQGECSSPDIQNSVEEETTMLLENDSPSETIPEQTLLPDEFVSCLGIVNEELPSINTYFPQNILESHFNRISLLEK

[3] = biological target: T2, human IL-23R endogenously expressed on DB cells (human, UniProt Q5VWK5 24-629); experiment: cell-based or functional assay
T2 sequence (looked up): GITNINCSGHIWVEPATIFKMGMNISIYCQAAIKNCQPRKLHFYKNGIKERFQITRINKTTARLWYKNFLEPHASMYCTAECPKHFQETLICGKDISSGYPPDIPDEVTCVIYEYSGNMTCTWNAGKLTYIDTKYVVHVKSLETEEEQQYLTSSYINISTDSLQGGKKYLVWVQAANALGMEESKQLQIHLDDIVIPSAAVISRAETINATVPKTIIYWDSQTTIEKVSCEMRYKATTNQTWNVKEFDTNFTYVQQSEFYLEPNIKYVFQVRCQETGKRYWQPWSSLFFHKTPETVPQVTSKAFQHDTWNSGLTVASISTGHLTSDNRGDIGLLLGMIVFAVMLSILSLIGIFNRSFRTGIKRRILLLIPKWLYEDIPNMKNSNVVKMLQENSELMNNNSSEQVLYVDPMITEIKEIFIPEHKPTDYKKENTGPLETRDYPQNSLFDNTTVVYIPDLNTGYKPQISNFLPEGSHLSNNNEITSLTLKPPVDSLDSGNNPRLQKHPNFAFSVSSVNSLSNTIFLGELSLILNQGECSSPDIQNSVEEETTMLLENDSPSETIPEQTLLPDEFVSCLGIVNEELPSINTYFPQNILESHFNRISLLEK

[4] = biological target: T1, Nluc-IL23R fusion protein; experiment: BRET competition vs TAMRA-labelled peptide, Nluc-IL23R membranes; remark: listed apart in the source
[5] = biological target: T1, Nluc-IL23R fusion protein; experiment: BRET competition vs TAMRA-labelled peptide, Nluc-IL23R membranes; Ki by Cheng-Prusoff

Molecule: human IL-23 (from UniProt Q9NPF7 20-189; P29460 23-328) (ligand)
- EC80 of hIL-23 (phospho-STAT3 in DB cells) [1]: 1.7 nM

B1: Compound 7 (peptide)
peptide: [dDab]TVWQE[AEF][2Nal][αMeL][2‑Amino‑6‑carboxyhexanoyl][Dab][3Pal]-NH2
modifications: lactam 1-10, N-6
- % displacement [2]: 104%
- hIL-23 (pSTAT3) antagonist % inhibition [3]: 99%
- hIL-23 (pSTAT3) antagonist IC50 [3]: 0.19 nM

B2: Compound 6 (peptide)
peptide: [dOrn]TVWQE[AEF][2Nal][αMeL][Aad][Dab][3Pal]-NH2
modifications: lactam 1-10, N-6
SMILES: CC(C)C[C@]1(C)NC(=O)[C@H](Cc2ccc3ccccc3c2)NC(=O)[C@H](Cc2ccc(OCCN)cc2)NC(=O)[C@@H]2CCC(=O)N[C@H](CCCNC(=O)CCC[C@@H](C(=O)N[C@@H](CCN)C(=O)N[C@@H](Cc3cccnc3)C(N)=O)NC1=O)C(=O)N[C@@H]([C@@H](C)O)C(=O)N[C@@H](C(C)C)C(=O)N[C@@H](Cc1c[nH]c3ccccc13)C(=O)N[C@@H](CCC(N)=O)C(=O)N2
- % displacement [2]: 104%
- hIL-23 (pSTAT3) antagonist % inhibition [3]: 104%
- hIL-23 (pSTAT3) antagonist IC50 [3]: 0.22 nM

B3: Compound C (peptide)
peptide: XQTWQCXWXENG
modifications: [Ac]-[Abu](16i)QTWQC(16i)[Y(2-aminoethoxy)]W[2-Me-Lys]ENG-[NH2]; (16i) [2,7] thioether bridge (Abu and Cys form a cystathionine)
- % displacement [2]: 102%
- hIL-23 (pSTAT3) antagonist % inhibition [3]: 99%
- hIL-23 (pSTAT3) antagonist IC50 [3]: 13 nM

B4: Ref 146 (peptide)
peptide: [4‑Aminomethyl‑phenylacetyl]SEW[Q(pyrrolidin)][Dab][AEF][2Nal][αMeL]E[Dab]-NH2
modifications: lactam N-10; bridge 3-6; also: (2c) bridge type not defined
- % displacement [4]: 105%
- IC50 [4]: 1.2 nM
- Ki [5]: 1.01 nM
- hIL-23 (pSTAT3) antagonist % inhibition [3]: 98%
- hIL-23 (pSTAT3) antagonist IC50 [3]: 42 nM

B5: Compound 24 (peptide)
peptide: KTVWQE[Phe(4-Me)][2Nal][αMeL][γDab](Propanoyl(3-(3-pyridyl)))
modifications: lactam 1-C, N-6; also: iso-Dab joined to preceding residue via its side-chain amine
- % displacement [2]: 96%
- IC50 [2]: 280 nM
- hIL-23 (pSTAT3) antagonist % inhibition [3]: 99%
- hIL-23 (pSTAT3) antagonist IC50 [3]: 100 nM
